Source: US20190367615A1 (BEIJING HANMI PHARM, published 2019)

Legend:
[1] = target: T1, Recombinant human CD80 (Sino Biological Inc.) (human, UniProt P33681 35-242); experiment: binding specificity ELISA, coated recombinant human CD80, anti-human IgG-HRP
T1 sequence (looked up): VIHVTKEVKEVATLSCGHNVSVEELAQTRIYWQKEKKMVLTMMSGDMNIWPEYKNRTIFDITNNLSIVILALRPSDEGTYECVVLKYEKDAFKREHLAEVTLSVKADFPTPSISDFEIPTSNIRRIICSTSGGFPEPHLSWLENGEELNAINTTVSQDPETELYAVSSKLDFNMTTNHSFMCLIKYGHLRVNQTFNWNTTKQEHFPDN
Method: (§1) The plate was washed five times with PBST and blocked with 300 μL/well of PBST containing 1% BSA and incubated at 25° C. for 1 hour. The plate was washed five times with PBST. […] The plate was washed five times with PBST. Then, horseradish peroxidase-labeled anti-human IgG antibody (Chemicon, Catalog Number AP309P) 1:2000 diluted in PBST containing 1% BSA was added, 100 μL was added to each well, incubated at 25° C. for 1 hour. The plate was washed five times with PBST. 100 μL/well of colorimetric substrate TMB was added and incubated at room temperature for 10 minutes. Color development was terminated by adding 100 μL/well of 1 M H₂SO₄. The absorbance at 450 nm was read on a microplate reader.

[2] = target: T2, Recombinant human CD86 (Sino Biological Inc.) (human, UniProt P42081 24-247, limits assumed); experiment: binding specificity ELISA, coated recombinant human CD86, anti-human IgG-HRP
T2 sequence (looked up): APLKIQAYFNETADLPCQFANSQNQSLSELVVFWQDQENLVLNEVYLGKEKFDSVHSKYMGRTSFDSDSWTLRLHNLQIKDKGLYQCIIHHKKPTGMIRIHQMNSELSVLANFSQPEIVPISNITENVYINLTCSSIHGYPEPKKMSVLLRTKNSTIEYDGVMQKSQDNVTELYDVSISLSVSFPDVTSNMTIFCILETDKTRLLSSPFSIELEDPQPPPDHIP
Method: as §1

[3] = target: Recombinant human CD28 (Sino Biological Inc.) (human, UniProt P10747 19-152); experiment: binding specificity ELISA, coated recombinant human CD28, anti-human IgG-HRP
Chain of Recombinant human CD28 (Sino Biological Inc.) (P10747 19-152 limits assumed): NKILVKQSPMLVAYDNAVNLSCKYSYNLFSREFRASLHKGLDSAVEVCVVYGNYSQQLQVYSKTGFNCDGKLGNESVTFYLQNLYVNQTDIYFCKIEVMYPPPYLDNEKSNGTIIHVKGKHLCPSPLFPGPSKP
Method: as §1

[4] = target: T3, Recombinant human B7-H2 (Sino Biological Inc.) (human, UniProt O75144 19-256, limits assumed); experiment: binding specificity ELISA, coated recombinant human B7-H2, anti-human IgG-HRP
T3 sequence (looked up): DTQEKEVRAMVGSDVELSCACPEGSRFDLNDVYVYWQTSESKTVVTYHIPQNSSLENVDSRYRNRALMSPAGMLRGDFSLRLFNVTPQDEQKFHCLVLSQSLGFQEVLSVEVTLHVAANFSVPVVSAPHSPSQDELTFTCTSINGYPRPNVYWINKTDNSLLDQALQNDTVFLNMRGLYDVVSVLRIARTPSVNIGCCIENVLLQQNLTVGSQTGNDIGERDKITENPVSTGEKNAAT
Method: as §1

[5] = target: T4, Recombinant human PD-1-Fc (human, UniProt Q15116 25-167, limits assumed); experiment: competition ELISA, PD-1-Fc coated, competitor biotin-labeled PD-L1
T4 construct: also called recombinant human PD-1-Fc protein; not shown: Fc part
T4 sequence (Q15116 25-167 limits assumed): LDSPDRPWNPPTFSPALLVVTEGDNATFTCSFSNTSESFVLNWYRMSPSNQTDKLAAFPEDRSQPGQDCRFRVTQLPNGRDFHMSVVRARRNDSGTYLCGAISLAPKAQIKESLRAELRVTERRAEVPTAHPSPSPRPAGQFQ
Method: (§2) Recombinant human PD-1-Fc was coated on a 96-well high-absorbing ELISA plate with a carbonate buffer solution with pH 9.6, the coating concentration was 1 μg/mL, the coating amount was 100 μL per well, and the coating was carried at 4° C. out overnight. The plate was washed five times with PBST and blocked with 300 μL/well of PBST containing 1% BSA and incubated at 25° C. for 1 hour. The plate was washed five times with PBST. The positive control and the anti-human PD-1 antibody sample were added, 50 μL per well. […] The plate was washed five times with PBST. Then, Streptavidin-HRP (BD Pharmingen, Catalog Number 554066) 1:1000 diluted in PBST containing 1% BSA was added, 100 μL per well, incubated at 25° C. for 1 hour. The plate was washed five times with PBST. 100 μL/well of colorimetric substrate TMB was added and incubated at room temperature for 10 minutes. Color development was terminated by adding 100 μL/well of 1 M H₂SO₄. The absorbance at 450 nm was read on a microplate reader.

[6] = target: T5, Recombinant human ICOS (Sino Biological Inc.) (human, UniProt Q9Y6W8 21-141); experiment: binding specificity ELISA, coated recombinant human ICOS, anti-human IgG-HRP
T5 sequence (looked up): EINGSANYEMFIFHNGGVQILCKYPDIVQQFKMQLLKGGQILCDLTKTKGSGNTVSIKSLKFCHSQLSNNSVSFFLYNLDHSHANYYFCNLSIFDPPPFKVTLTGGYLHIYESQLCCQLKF
Method: as §1

[7] = target: T4, Recombinant human PD-1-Fc; experiment: competition ELISA, coated human PD-1-Fc, blocked ligand biotin-labeled PD-L2 (final 160 nM), streptavidin-HRP, OD450nm [panel PD-1/PD-L2 Blocking Activity]
Method: as §2

[8] = target: T6, Recombinant human CTLA4 (Sino Biological Inc.) (human, UniProt P16410 36-162); experiment: binding specificity ELISA, coated recombinant human CTLA4, anti-human IgG-HRP
T6 sequence (looked up): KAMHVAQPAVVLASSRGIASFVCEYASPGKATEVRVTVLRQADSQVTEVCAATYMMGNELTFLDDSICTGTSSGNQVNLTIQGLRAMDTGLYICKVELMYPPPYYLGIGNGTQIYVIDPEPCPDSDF
Method: as §1

[9] = target: T7, Recombinant human PD-L2 (Sino Biological Inc.) (human, UniProt Q9BQ51 20-220); experiment: binding specificity ELISA, coated recombinant human PD-L2, anti-human IgG-HRP
T7 sequence (looked up): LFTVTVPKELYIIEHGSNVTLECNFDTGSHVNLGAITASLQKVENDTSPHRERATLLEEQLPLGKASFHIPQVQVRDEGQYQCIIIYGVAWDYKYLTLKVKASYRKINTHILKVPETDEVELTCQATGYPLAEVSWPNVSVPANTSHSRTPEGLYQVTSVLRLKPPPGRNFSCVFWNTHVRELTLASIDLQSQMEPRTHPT
Method: as §1

binding result [1]: no binding | binding result [2]: no binding | binding result [3]: no binding | binding result [4]: no binding | IC50 [5]: 1.45 nM | binding result [6]: no binding | IC50 [7]: 0.895 nM | binding result [8]: no binding | binding result [9]: no binding
B1: anti-human PD-1 chimeric monoclonal antibody (antibody, human IgG4 S228P, kappa, V domains shown)
VH: EVQLQESGGGLVKPGGSLKLSCAASGFTFSSYGMSWVRQTPEKRLEWVASISGGGRYTYYPDSMKGRFTISRDNAKNNLHLQMSSLRSEDTALYYCVYEYFYTMDYWGQGTSVTVSS
VL: DIVLTQSPATLSVTPGDSVSLSCRANQSISNNLHWYQQRSHESPRLLIRFASQSISGIPSRFSGSGSGTDFTLSINSVETEDFGMYFCQQSDNWPLTFGAGTKLEIKR
notes: expressed in 293F cells; also called Anti-human PD-1 Chimeric Antibody; chimeric anti-human PD-1 monoclonal antibody
